Publication PMC9820451, “Coprinopsis cinerea Galectin CGL1 Induces Apoptosis and Inhibits Tumor Growth in Colorectal Cancer Cells” (International Journal of Molecular Sciences, 2022)

Target: the molecule itself
Experiment: dynamic light scattering; dilutions of the purified galectin filtered through 0.22 µm membranes, Zetasizer Nano-S; molecular weight estimated from the hydrodynamic radius; self-association, tetramer

B1: Coprinopsis cinerea galectin CGL1 (natural protein)
chain: MLYHLFVNNQIKLQDDFKAEAVATIRSSVFNSKGGTTVFNFLSAGENILLHISIRPGENAIVFNSRTKGGAWGPEERVPYAGKFKGPNPSITVLDHGDRFQILFDNATAIYYTKRIKENAAAIAYSAENSLFSSPVTVDIHGLLPPLPPA
notes: galectin CGL1 of Coprinopsis cinerea, full-length cgl1 amplified from genomic DNA of strain Okayama 7 (#130; ATCC MYA-4618), cloned into pET22b(+); No removal of the tag is told
  stoichiometry N: 4
